Reference: the supplement of paper PMC12042874
± gives the uncertainty stated by the source.

Experiment: amyloid nucleation score (Sup35N fusion, yeast selection) (log enrichment); library NNK1; higher = more nucleation; inactive = no reads after selection
How it was run: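 Peptides of 20 random codons fused to Sup35N were expressed in psi-negative yeast, induced 24 hours with 100 μM copper sulfate, then grown 7 days at 30°C on medium lacking adenine and uracil. Input and output plasmid inserts were Illumina-sequenced. Nucleation score is the DiMSum log enrichment of output over input reads, centred on the mode score of non-aggregating sequences, excluding sequences with under 100 input reads. Random libraries had three technical output replicates.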

| Substance | amyloid nucleation score |
| --- | --- |
| FCPNHHNCVISCEWHSGALR | 2.51 ± 0.13 |
| LNSGASMLWQTLSYPMSRVR | -0.506 ± 1.2 |
| NEDLNS | 0.194 ± 0.31 |
| QANAMNYKEKLFNFRYRGAM | -0.722 ± 0.53 |
| LDIVWVDSVIVISLMMLTYC | 0.199 ± 0.39 |
| SKFNAIMNCDVIKRSLNCIN | 0.022 ± 0.3 |
| LSYKIKDT | 0.626 ± 0.72 |
| DRRYVKLLRLYCCILECTKV | -0.18 ± 0.38 |
| VSIIE | -0.127 ± 0.4 |
| YNFERDYLSVYHFAWLIP | 0.372 ± 0.54 |
| MGYCIWFYLKSYH | -0.074 ± 0.3 |
| SHSGFTCTCWCMALLYGVAS | 1.22 ± 0.63 |
| SLEWLESCFSDAHIHTAH | -0.733 ± 1.9 |
| MITWKGLFPAGVGFLRLHA | -0.024 ± 0.43 |
| LKELYG | 0.303 ± 0.65 |
| CYATMYAQGDRRSGDGCLPT | -1.86 ± 1.4 |
| WVSNL | 0.296 ± 0.44 |
| DYFWSSSEGWPEFQNIKSIG | -0.07 ± 1.4 |
| GVVGYGIWHSLGVRLIQNLC | 0.389 ± 0.93 |
| NTMLQKVKCWKRRVDSSRQE | 0.093 ± 0.87 |
| GCVTYIYGCMLYCEEAFR | 5.17 ± 0.085 |
| SVILIGRRDDHASSIRVIGS | -0.752 ± 0.69 |
| FPCLTSSTSGYWSLI | 1.32 ± 0.12 |
| GDVPYRNMHCPRFLMREMVV | 0.354 ± 0.25 |
| FLCHWLYFRNSYGGYVSRW | 1.92 ± 0.4 |
| KMFVIVWCDFDAGALGATVN | -0.488 ± 0.58 |

| Substance | amyloid nucleation score |
| --- | --- |
| KVLSIRWECPLECFALQSYV | 0.042 ± 0.32 |
| NSCRTRLVTRGCSTVPNMWM | -0.17 ± 0.43 |
| SCLPGPKRFL | 0.496 ± 1.2 |
| CNWVIRNPYVGPIRSNVHGS | 0.124 ± 0.58 |
| RSVSLC | 0.907 ± 0.61 |
| YERIPFLDSGTYGIYDWTAR | -0.372 ± 0.3 |
| TCNNRSSSCR | 1.1 ± 0.61 |
| VFLKDSTVAGNVMTCDIRVV | 0.078 ± 0.6 |
| GTHLYS | 0.78 ± 0.38 |
| VFRGSWCRTNNVIPGLFNKA | 0.488 ± 0.4 |
| DGLTLFLSRNGDYYSFTKIT | 0.197 ± 0.46 |
| YTPMTTSWLLPSLEINI | -0.069 ± 0.71 |
| LTHYEFGTFFYKVWSNDRHK | 3.35 ± 0.062 |
| MTRNHFRYTWSVANMWERGF | -0.746 ± 1.3 |
| PSRDSV | -1.06 ± 1.2 |
| RDYYIVNSGLKLEYHLLI | 3.77 ± 0.051 |
| RLQSKLLHCS | -0.169 ± 0.45 |
| NVFLVRAYLMENVHFYDFMC | 4.54 ± 0.14 |
| AKELDNGIYFMKLWLREELE | -0.743 ± 1.2 |
| GRFKWCGCNNTLWVGISRN | 1.9 ± 0.15 |
| QVNNPSTWLMRNQIDQKLLR | -1.8 ± 1.7 |
| VFSYGWLYQAPFFRFLHTGF | 0.109 ± 0.74 |
| IWYRQVCANLLSN | inactive |
| LDVNLGYCHVVYWTIVKVRL | inactive |
| SFNNFEFILVIDYKRKSYMR | -0.222 ± 0.36 |
| CLINFP | 0.722 ± 0.74 |

| Substance | amyloid nucleation score |
| --- | --- |
| ALMRLTRNSMSFWRQ | -0.17 ± 0.36 |
| NRDQRKGIVFTWAVVEPKLP | 0.413 ± 0.97 |
| MTKFCID | 0.965 ± 0.66 |
| EVLNIYLHNRLNVLFTELAS | -0.884 ± 1.4 |
| YCKLDVAVFCVQYNMSMSEQ | 5.46 ± 0.079 |
| AFEFKRLRIACVNDGQINLG | 2.43 ± 0.42 |
| LHTMCGK | 0.03 ± 0.97 |
| YMGELFTE | 2.45 ± 0.15 |
| INTSYIEEHYELVGFVHWNV | -0.449 ± 0.79 |
| CYSWHGVYRGYVYSSYNNYV | 0.77 ± 0.52 |
| SLWFTYCQ | 0.751 ± 0.38 |
| NDDSDSVVFSTNGGIYFMHG | -0.177 ± 0.53 |
| RTLPSG | -0.12 ± 0.19 |
| APVFYIPIMFSQLFGLAQIY | 6.935 ± 0.06 |
| FLLLCRSFFSARTILRCTMG | 0.072 ± 0.81 |
| RIVEGWDTLSFLFRKGCEFF | 1.2 ± 0.56 |
| DMHLMSGDLGMRVRPGGSAV | 0.371 ± 0.7 |
| WLDRGW | 0.282 ± 0.33 |
| QNHSGPGLMIRILANAQKWF | -0.93 ± 2.4 |
| FNIHCVSSA | -0.015 ± 0.47 |
| NVSDWSHVFMSMFLIMGGCN | 0.509 ± 0.66 |
| VYLSYVFMYS | -0.445 ± 0.36 |
| FTLSKTILDRSFLWIQGLWS | -0.354 ± 0.81 |
| ACDVVIRTWITKDTKGFYRA | 0.488 ± 0.29 |
| GPPSWSELDFHYCVGGWFYP | -0.456 ± 0.56 |
| LFLWDVFGQLAFVRVGTICW | 1.14 ± 0.56 |

| Substance | amyloid nucleation score |
| --- | --- |
| LLLVCMHGSFAMYMPLNNRW | 0.922 ± 0.93 |
| QLTVYMFFCYC | 5.378 ± 0.044 |
| SPIMEKACVD | -0.053 ± 1.6 |
| ACSCDALRSNLAIIKRESRV | -0.766 ± 2.4 |
| RSVSLNRSTRRRR | 1.1 ± 0.41 |
| FGCTKANT | -0.657 ± 1.1 |
| SFDYRENCPINTVIWLRLCK | 3.93 ± 0.098 |
| HGMWNGFTILM | 3.26 ± 0.11 |
| IFGKTFTGYMVRFGVVHDLA | 0.358 ± 0.41 |
| DCHVRCLRQV | 0.611 ± 0.35 |
| FVSVWDILL | -0.049 ± 0.27 |
| PSIGMVF | 1.77 ± 0.53 |
| MSCPRGILGSAIWTYSIGHS | -0.232 ± 1.7 |
| LNWVLFADLLWPR | 0.212 ± 0.57 |
| QGILCFSIHSSNSMTGNTVF | 0.038 ± 0.25 |
| LRTCIVGKLNQTTEILCGSS | 1.14 ± 0.73 |
| STTYCFFSYAGLRICYALMG | 1.3 ± 0.2 |
| SHQVVGGLLTYSVWCKCLGC | 3.92 ± 0.059 |
| VDCMGKMVLFLPTFGDGFIV | -0.123 ± 0.32 |
| GASCTLISCLLLLHSAWSLS | 0.237 ± 0.59 |
| SLVLVYGFWELYLW | 0.689 ± 0.84 |
| RFRFMLVFSNLSLL | -0.022 ± 0.53 |
| NLFSGNLPRFDFAIQGAFVN | -0.447 ± 0.48 |
| GRSAVAFISPPLSLRIAQCP | 0.252 ± 0.28 |
| YSMVI | inactive |
| HFFNVYGSNMVISSWDSRCE | 6.23 ± 0.076 |

| Substance | amyloid nucleation score |
| --- | --- |
| SSIRNVTAICINGSRLINVL | 1.1 ± 0.54 |
| PHDSFLMHTDSGEHWGPVYR | 0.037 ± 0.36 |
| VFIIRRDLCWRTSFCLQQEL | 0.965 ± 0.18 |
| CDCTSRGK | -0.407 ± 1.5 |
| TYDALRGYNYHLWSNQFTFY | 4.84 ± 0.066 |
| YDNIWYKVNRAYEIRWLVGG | -0.383 ± 1.7 |
| WLLVQLYYVCYFGLRLEFSM | -0.237 ± 0.18 |
| VVSYISPATLRTLKLEKGLS | 0.029 ± 0.76 |
| YSFSRQVSMPSSYSFALF | -0.742 ± 0.65 |
| WGYRHSYSVGPRW | inactive |
| GFLTETDNCTICIFHMFVDN | 6.201 ± 0.059 |
| AWIPFVNTKTEWRVMDVNFD | 0.399 ± 0.62 |
| YDYLDALHLTEASKSGCLVN | 0.423 ± 0.69 |
| VFITSVFVRECNTHESTTIQ | 8.073 ± 0.078 |
| TSPSRIMS | 1.12 ± 0.35 |
| LMEIFLNLPPANKNSYNRR | -0.766 ± 2.4 |
| LYYIRVFRNSI | -0.751 ± 0.46 |
| IFCSNECVSTVDADTPGLSL | 9.289 ± 0.044 |
| KGDNVEIMQTFDKSCLDIGA | inactive |
| EVCFCEGEVKFWGKGAIFSR | -1.88 ± 1.8 |
| TQVWTQRCPCKEASRPGLRT | -1.19 ± 2.7 |
| VNSGVNCMTVFVVVSLLSCG | 2.98 ± 0.11 |
| IGQFMVDWYNIGGREPVPGS | 0.301 ± 0.78 |
| CWIMYDYSSPGLFL | -1.1 ± 1.6 |
